For the test, the target named is Spindle-F (Spn-F) (UniProt Q9V9Y9). The experiment in a line: anti-FLAG co-IP of differently tagged Spn-F. To be noted: reference: wild-type Spn-F with Ik2; sites S53,S85,S172,S202,S264,S270,S325,S349.

For “Spindle-F (Spn-F) (from UniProt Q9V9Y9) SpnF-8A with Ik2”, the “binding against the reference” value is given as “stronger”.

The record behind these values is paper PMC4634852.
